Measured values taken from patent US20200164020A1.

Biological target: IFNβ in spent medium of HEp-2 cells transfected with siPUM1 (UniProt P01574)
Assay: cell-based or functional assay

Sequence of UniProt P01574 (P01574 22-187 limits assumed): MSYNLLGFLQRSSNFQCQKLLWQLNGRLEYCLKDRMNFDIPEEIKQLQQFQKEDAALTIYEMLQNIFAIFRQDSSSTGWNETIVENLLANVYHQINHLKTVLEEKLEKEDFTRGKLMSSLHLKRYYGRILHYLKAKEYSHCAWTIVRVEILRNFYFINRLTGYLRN

Q: “anti-IFNβ antibody (R&D Systems, MAB814-100)” was tested. Which accumulation of HSV-1 viral proteins (immunoblot) in HEp-2 cells exposed to siPUM1 spent medium pre-incubated with antibody, IFN neutralization assay did it give?
A: 2 to 4 fold
